The values that follow are results of earlier work, collected in PMC6928821.

For orientation: pKd means −log10 of the Kd, conventionally taken in molar units.

For one data set, the target named is p300 (Homo sapiens) (UniProt Q09472).
Data set [1] addresses p300 Taz2 (Homo sapiens) (UniProt Q09472).
Data set [2] shares this target. This is another data set of the same source.

pKd: −log10 of the molar value. Read-outs that look alike come from different tables or passages of the source.

Sequence of p53 TAD1 TAD1 (P04637 13-37): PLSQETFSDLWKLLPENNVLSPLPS
Sequence of p300 Taz2 (Homo sapiens) (Q09472 1723-1836): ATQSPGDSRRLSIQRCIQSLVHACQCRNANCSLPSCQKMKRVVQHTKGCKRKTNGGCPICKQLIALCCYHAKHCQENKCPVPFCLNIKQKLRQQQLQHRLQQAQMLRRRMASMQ
Sequence of p53 TAD1 1-39 (P04637 1-39): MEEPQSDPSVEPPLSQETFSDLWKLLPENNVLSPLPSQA
Sequence of p300 (Homo sapiens) (Q09472 2-2414): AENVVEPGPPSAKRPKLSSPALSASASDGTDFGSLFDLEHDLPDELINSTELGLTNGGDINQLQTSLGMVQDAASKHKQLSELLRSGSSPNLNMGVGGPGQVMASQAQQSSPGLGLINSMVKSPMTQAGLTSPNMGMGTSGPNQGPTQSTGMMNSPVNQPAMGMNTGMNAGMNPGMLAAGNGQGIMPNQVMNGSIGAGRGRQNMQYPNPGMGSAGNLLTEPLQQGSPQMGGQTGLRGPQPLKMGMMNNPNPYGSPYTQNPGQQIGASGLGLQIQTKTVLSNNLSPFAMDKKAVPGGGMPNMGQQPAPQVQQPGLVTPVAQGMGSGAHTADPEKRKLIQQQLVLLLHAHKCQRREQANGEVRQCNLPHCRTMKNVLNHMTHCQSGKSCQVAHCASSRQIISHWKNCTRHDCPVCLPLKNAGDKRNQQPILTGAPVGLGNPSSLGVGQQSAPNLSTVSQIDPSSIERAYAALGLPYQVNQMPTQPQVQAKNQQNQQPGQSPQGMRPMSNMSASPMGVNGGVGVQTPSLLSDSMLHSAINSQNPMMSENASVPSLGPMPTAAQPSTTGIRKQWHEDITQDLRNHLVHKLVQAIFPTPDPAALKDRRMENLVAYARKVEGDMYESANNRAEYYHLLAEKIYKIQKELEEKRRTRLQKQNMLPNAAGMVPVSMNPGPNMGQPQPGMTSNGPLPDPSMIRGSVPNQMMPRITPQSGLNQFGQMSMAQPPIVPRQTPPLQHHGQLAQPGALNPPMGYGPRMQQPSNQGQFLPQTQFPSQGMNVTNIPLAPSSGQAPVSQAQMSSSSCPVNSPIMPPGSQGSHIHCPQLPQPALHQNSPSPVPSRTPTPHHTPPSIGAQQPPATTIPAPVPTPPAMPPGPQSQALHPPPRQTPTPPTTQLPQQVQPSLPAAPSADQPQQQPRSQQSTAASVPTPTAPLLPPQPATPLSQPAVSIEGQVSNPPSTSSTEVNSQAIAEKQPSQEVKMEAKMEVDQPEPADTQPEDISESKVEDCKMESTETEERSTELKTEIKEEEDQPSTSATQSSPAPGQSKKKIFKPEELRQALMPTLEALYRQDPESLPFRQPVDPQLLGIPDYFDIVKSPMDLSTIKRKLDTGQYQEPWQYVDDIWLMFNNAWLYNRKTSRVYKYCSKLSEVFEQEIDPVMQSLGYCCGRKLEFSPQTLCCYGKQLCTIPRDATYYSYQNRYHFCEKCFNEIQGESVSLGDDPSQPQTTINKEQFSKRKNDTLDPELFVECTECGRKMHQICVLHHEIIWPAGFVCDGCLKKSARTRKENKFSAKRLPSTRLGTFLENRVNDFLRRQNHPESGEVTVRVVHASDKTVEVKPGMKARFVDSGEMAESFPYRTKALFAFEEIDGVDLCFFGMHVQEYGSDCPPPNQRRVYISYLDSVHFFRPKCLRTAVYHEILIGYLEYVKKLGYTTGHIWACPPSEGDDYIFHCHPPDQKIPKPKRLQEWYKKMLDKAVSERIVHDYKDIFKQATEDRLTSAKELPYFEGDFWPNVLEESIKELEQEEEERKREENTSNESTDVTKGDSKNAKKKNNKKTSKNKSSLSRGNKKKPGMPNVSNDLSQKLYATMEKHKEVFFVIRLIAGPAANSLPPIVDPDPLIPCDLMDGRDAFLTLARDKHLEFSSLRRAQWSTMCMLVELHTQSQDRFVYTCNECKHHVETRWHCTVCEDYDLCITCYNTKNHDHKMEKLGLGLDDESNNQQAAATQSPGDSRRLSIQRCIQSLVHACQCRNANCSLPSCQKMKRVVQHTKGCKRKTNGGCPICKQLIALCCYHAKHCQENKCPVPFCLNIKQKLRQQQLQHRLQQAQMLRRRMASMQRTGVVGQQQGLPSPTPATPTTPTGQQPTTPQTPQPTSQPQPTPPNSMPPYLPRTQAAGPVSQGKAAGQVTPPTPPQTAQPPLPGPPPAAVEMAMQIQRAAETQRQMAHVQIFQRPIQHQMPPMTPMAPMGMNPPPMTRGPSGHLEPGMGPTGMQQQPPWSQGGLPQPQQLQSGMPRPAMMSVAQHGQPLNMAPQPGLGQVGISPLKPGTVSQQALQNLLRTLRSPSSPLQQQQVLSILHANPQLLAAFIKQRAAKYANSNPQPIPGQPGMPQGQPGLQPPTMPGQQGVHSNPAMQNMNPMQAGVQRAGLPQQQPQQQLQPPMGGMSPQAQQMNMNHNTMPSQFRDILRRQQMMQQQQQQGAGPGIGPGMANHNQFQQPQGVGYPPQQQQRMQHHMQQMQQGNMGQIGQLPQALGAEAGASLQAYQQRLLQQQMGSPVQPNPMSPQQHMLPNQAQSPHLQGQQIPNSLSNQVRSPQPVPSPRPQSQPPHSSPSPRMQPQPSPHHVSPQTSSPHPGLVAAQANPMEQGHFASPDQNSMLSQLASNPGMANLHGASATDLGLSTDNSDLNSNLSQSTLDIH

With p53 TAD1 1-39 (from UniProt P04637), the pKd with p300 (Homo sapiens) is 5.52.

In the case of p53 TAD1 TAD1 (from UniProt P04637), the pKd with p300 Taz2 (Homo sapiens) [1] was 5.52; in the data set with p300 Taz2 (Homo sapiens) [2] it was 6.70.
